Experimental findings from IntAct's records for PubMed 21035448 are described below.

To fix the notation:
B1: Regulator of G-protein signaling 4 (Rattus norvegicus (Rat)), P49799 (parent)
chain: MCKGLAGLPASCLRSAKDMKHRLGFLLQKSDSCEHSSSHSKKDKVVTCQRVSQEEVKKWAESLENLINHECGLAAFKAFLKSEYSEENIDFWISCEEYKKIKSPSKLSPKAKKIYNEFISVQATKEVNLDSCTREETSRNMLEPTITCFDEAQKKIFNLMEKDSYRRFLKSRFYLDLTNPSSCGAEKQKGAKSSADCTSLVPQCA
partner: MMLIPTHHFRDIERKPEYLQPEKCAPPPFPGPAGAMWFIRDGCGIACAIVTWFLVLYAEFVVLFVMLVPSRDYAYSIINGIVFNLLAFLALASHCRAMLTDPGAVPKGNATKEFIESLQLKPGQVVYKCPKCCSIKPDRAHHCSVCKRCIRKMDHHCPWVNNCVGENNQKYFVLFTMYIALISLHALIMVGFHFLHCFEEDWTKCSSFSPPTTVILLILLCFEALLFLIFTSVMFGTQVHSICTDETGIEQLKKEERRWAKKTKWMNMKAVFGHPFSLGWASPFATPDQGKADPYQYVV

The variants in the experiment derive from B1. The note with it: with zdhc3_mouse Zdhhc3, Q8R173.
With C2S, the “effect of a mutation on the interaction” value is “disrupting interaction”.
